Laboratory results reported in the supplement of paper PMC10567573.

B1: EPB41L3 (parent)
chain: SMQCKVILLDGSEYTCDVEKRSRG

Variants of: B1
Assay: protein stability index of a GFP-peptide fusion (GPS, HEK-293T) (PSI 1-6); higher = more stable
Settings: c terminus: a fixed tail appended
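Also: lentivirally expressed fusions sorted by FACS into six bins by GFP to DsRed ratio, PSI derived from sequencing read proportions per bin multiplied by bin number.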

Variant	protein stability index
SSQCKVILLDGSEYTCDVEKRSRG	3.2
STQCKVILLDGSEYTCDVEKRSRG	3.53
SVQCKVILLDGSEYTCDVEKRSRG	2.6
SYQCKVILLDGSEYTCDVEKRSRG	1.5
SMACKVILLDGSEYTCDVEKRSRG	2.9
SMCCKVILLDGSEYTCDVEKRSRG	2.16
SMDCKVILLDGSEYTCDVEKRSRG	3.75
SMECKVILLDGSEYTCDVEKRSRG	3.81
SMFCKVILLDGSEYTCDVEKRSRG	3.2
SMGCKVILLDGSEYTCDVEKRSRG	2.38
SMHCKVILLDGSEYTCDVEKRSRG	2.83
SMICKVILLDGSEYTCDVEKRSRG	2.44
SMKCKVILLDGSEYTCDVEKRSRG	2.68
SMLCKVILLDGSEYTCDVEKRSRG	1.49
SMMCKVILLDGSEYTCDVEKRSRG	3.35
SMNCKVILLDGSEYTCDVEKRSRG	2.76
SMPCKVILLDGSEYTCDVEKRSRG	3.63
SMRCKVILLDGSEYTCDVEKRSRG	2.37
SMSCKVILLDGSEYTCDVEKRSRG	2.98
SMTCKVILLDGSEYTCDVEKRSRG	2.48
SMVCKVILLDGSEYTCDVEKRSRG	2.63
SMWCKVILLDGSEYTCDVEKRSRG	1.19
SMYCKVILLDGSEYTCDVEKRSRG	2.07
SMQAKVILLDGSEYTCDVEKRSRG	3.93

Variant	protein stability index
SMQDKVILLDGSEYTCDVEKRSRG	4.23
SMQEKVILLDGSEYTCDVEKRSRG	4.48
SMQFKVILLDGSEYTCDVEKRSRG	2.03
SMQGKVILLDGSEYTCDVEKRSRG	4.33
SMQHKVILLDGSEYTCDVEKRSRG	3.46
SMQIKVILLDGSEYTCDVEKRSRG	2.41
SMQKKVILLDGSEYTCDVEKRSRG	4.37
SMQLKVILLDGSEYTCDVEKRSRG	2.04
SMQMKVILLDGSEYTCDVEKRSRG	2.6
SMQNKVILLDGSEYTCDVEKRSRG	3.07
SMQPKVILLDGSEYTCDVEKRSRG	3.94
SMQQKVILLDGSEYTCDVEKRSRG	4.28
SMQRKVILLDGSEYTCDVEKRSRG	4.51
SMQSKVILLDGSEYTCDVEKRSRG	3.78
SMQTKVILLDGSEYTCDVEKRSRG	3.61
SMQVKVILLDGSEYTCDVEKRSRG	3.17
SMQWKVILLDGSEYTCDVEKRSRG	2.32
SMQYKVILLDGSEYTCDVEKRSRG	2.29
SMQCAVILLDGSEYTCDVEKRSRG	3.27
SMQCCVILLDGSEYTCDVEKRSRG	1.77
SMQCDVILLDGSEYTCDVEKRSRG	3.96
SMQCEVILLDGSEYTCDVEKRSRG	3.48
SMQCFVILLDGSEYTCDVEKRSRG	1.58
SMQCGVILLDGSEYTCDVEKRSRG	3.57

Variant	protein stability index
SMQCHVILLDGSEYTCDVEKRSRG	2.39
SMQCLVILLDGSEYTCDVEKRSRG	1.31
SMQCMVILLDGSEYTCDVEKRSRG	1.43
SMQCNVILLDGSEYTCDVEKRSRG	3.06
SMQCPVILLDGSEYTCDVEKRSRG	3.85
SMQCQVILLDGSEYTCDVEKRSRG	3.06
SMQCRVILLDGSEYTCDVEKRSRG	2.06
SMQCSVILLDGSEYTCDVEKRSRG	3.04
SMQCTVILLDGSEYTCDVEKRSRG	2.54
SMQCWVILLDGSEYTCDVEKRSRG	2.59
SMQCYVILLDGSEYTCDVEKRSRG	3.16
SMQCKAILLDGSEYTCDVEKRSRG	2.1
SMQCKCILLDGSEYTCDVEKRSRG	2.07
SMQCKDILLDGSEYTCDVEKRSRG	4.38
SMQCKEILLDGSEYTCDVEKRSRG	4.55
SMQCKFILLDGSEYTCDVEKRSRG	2.76
SMQCKGILLDGSEYTCDVEKRSRG	3.61
SMQCKHILLDGSEYTCDVEKRSRG	2.56
SMQCKIILLDGSEYTCDVEKRSRG	2.2
SMQCKLILLDGSEYTCDVEKRSRG	2.44
SMQCKMILLDGSEYTCDVEKRSRG	3.36
SMQCKNILLDGSEYTCDVEKRSRG	4.5
SMQCKPILLDGSEYTCDVEKRSRG	4.68
SMQCKQILLDGSEYTCDVEKRSRG	2.97

Variant	protein stability index
SMQCKRILLDGSEYTCDVEKRSRG	3.62
SMQCKSILLDGSEYTCDVEKRSRG	4.07
SMQCKTILLDGSEYTCDVEKRSRG	3.71
SMQCKWILLDGSEYTCDVEKRSRG	2.59
SMQCKYILLDGSEYTCDVEKRSRG	2.95
SMQCKVALLDGSEYTCDVEKRSRG	3.03
SMQCKVDLLDGSEYTCDVEKRSRG	4.08
SMQCKVFLLDGSEYTCDVEKRSRG	2.39
SMQCKVHLLDGSEYTCDVEKRSRG	3.03
SMQCKVLLLDGSEYTCDVEKRSRG	2.63
SMQCKVNLLDGSEYTCDVEKRSRG	3.43
SMQCKVQLLDGSEYTCDVEKRSRG	3.13
SMQCKVRLLDGSEYTCDVEKRSRG	3.45
SMQCKVSLLDGSEYTCDVEKRSRG	3.91
SMQCKVTLLDGSEYTCDVEKRSRG	3.64
SMQCKVWLLDGSEYTCDVEKRSRG	3.62
SMQCKVYLLDGSEYTCDVEKRSRG	2.15
SMQCKVIALDGSEYTCDVEKRSRG	3.31
SMQCKVICLDGSEYTCDVEKRSRG	3.13
SMQCKVIDLDGSEYTCDVEKRSRG	4.41
SMQCKVIELDGSEYTCDVEKRSRG	4.05
SMQCKVIFLDGSEYTCDVEKRSRG	4.39
SMQCKVIHLDGSEYTCDVEKRSRG	3.66
SMQCKVIILDGSEYTCDVEKRSRG	2.17

Variant	protein stability index
SMQCKVIKLDGSEYTCDVEKRSRG	3.43
SMQCKVIMLDGSEYTCDVEKRSRG	3.13
SMQCKVINLDGSEYTCDVEKRSRG	4.24
SMQCKVIPLDGSEYTCDVEKRSRG	4.33
SMQCKVIQLDGSEYTCDVEKRSRG	4.25
SMQCKVIRLDGSEYTCDVEKRSRG	2.83
SMQCKVISLDGSEYTCDVEKRSRG	3.79
SMQCKVITLDGSEYTCDVEKRSRG	2.67
SMQCKVIYLDGSEYTCDVEKRSRG	3.13
SMQCKVILADGSEYTCDVEKRSRG	3.6
SMQCKVILCDGSEYTCDVEKRSRG	2.79
SMQCKVILDDGSEYTCDVEKRSRG	4.09
SMQCKVILEDGSEYTCDVEKRSRG	4.28
SMQCKVILFDGSEYTCDVEKRSRG	2.83
SMQCKVILGDGSEYTCDVEKRSRG	3.72
SMQCKVILHDGSEYTCDVEKRSRG	3.44
SMQCKVILIDGSEYTCDVEKRSRG	2.97
SMQCKVILKDGSEYTCDVEKRSRG	3.81
SMQCKVILMDGSEYTCDVEKRSRG	3.2
SMQCKVILNDGSEYTCDVEKRSRG	3.92
SMQCKVILPDGSEYTCDVEKRSRG	3.71
SMQCKVILQDGSEYTCDVEKRSRG	3.94
SMQCKVILRDGSEYTCDVEKRSRG	3.03
SMQCKVILSDGSEYTCDVEKRSRG	2.85

Variant	protein stability index
SMQCKVILTDGSEYTCDVEKRSRG	3.51
SMQCKVILVDGSEYTCDVEKRSRG	3.31
SMQCKVILYDGSEYTCDVEKRSRG	2.41
SMQCKVILLAGSEYTCDVEKRSRG	2.07
SMQCKVILLEGSEYTCDVEKRSRG	2.24
SMQCKVILLFGSEYTCDVEKRSRG	2.14
SMQCKVILLGGSEYTCDVEKRSRG	2.14
SMQCKVILLHGSEYTCDVEKRSRG	1.5
SMQCKVILLKGSEYTCDVEKRSRG	3.15
SMQCKVILLLGSEYTCDVEKRSRG	1.67
SMQCKVILLMGSEYTCDVEKRSRG	1.5
SMQCKVILLNGSEYTCDVEKRSRG	1.89
SMQCKVILLPGSEYTCDVEKRSRG	2.66
SMQCKVILLQGSEYTCDVEKRSRG	2.41
SMQCKVILLRGSEYTCDVEKRSRG	2.03
SMQCKVILLSGSEYTCDVEKRSRG	2.04
SMQCKVILLTGSEYTCDVEKRSRG	2.75
SMQCKVILLVGSEYTCDVEKRSRG	1.62
SMQCKVILLWGSEYTCDVEKRSRG	1.09
SMQCKVILLYGSEYTCDVEKRSRG	1.77
SMQCKVILLDASEYTCDVEKRSRG	2.58
SMQCKVILLDCSEYTCDVEKRSRG	2.41
SMQCKVILLDDSEYTCDVEKRSRG	2.98
SMQCKVILLDESEYTCDVEKRSRG	2.03

Variant	protein stability index
SMQCKVILLDHSEYTCDVEKRSRG	3.67
SMQCKVILLDISEYTCDVEKRSRG	1.99
SMQCKVILLDKSEYTCDVEKRSRG	2.94
SMQCKVILLDLSEYTCDVEKRSRG	2.75
SMQCKVILLDMSEYTCDVEKRSRG	1.73
SMQCKVILLDNSEYTCDVEKRSRG	3.26
SMQCKVILLDPSEYTCDVEKRSRG	3.22
SMQCKVILLDQSEYTCDVEKRSRG	2.87
SMQCKVILLDRSEYTCDVEKRSRG	2.64
SMQCKVILLDTSEYTCDVEKRSRG	2.76
SMQCKVILLDVSEYTCDVEKRSRG	2.64
SMQCKVILLDWSEYTCDVEKRSRG	1.68
SMQCKVILLDYSEYTCDVEKRSRG	2.51
SMQCKVILLDGAEYTCDVEKRSRG	3.39
SMQCKVILLDGCEYTCDVEKRSRG	2.14
SMQCKVILLDGDEYTCDVEKRSRG	3.08
SMQCKVILLDGEEYTCDVEKRSRG	4.38
SMQCKVILLDGGEYTCDVEKRSRG	2.9
SMQCKVILLDGHEYTCDVEKRSRG	2.34
SMQCKVILLDGIEYTCDVEKRSRG	2.39
SMQCKVILLDGKEYTCDVEKRSRG	3.51
SMQCKVILLDGMEYTCDVEKRSRG	1.98
SMQCKVILLDGNEYTCDVEKRSRG	2.91
SMQCKVILLDGPEYTCDVEKRSRG	2.4

Variant	protein stability index
SMQCKVILLDGQEYTCDVEKRSRG	2.92
SMQCKVILLDGREYTCDVEKRSRG	2.99
SMQCKVILLDGTEYTCDVEKRSRG	2.16
SMQCKVILLDGVEYTCDVEKRSRG	2.05
SMQCKVILLDGWEYTCDVEKRSRG	1.94
SMQCKVILLDGYEYTCDVEKRSRG	1.78
SMQCKVILLDGSAYTCDVEKRSRG	2.14
SMQCKVILLDGSCYTCDVEKRSRG	1.81
SMQCKVILLDGSDYTCDVEKRSRG	2.37
SMQCKVILLDGSGYTCDVEKRSRG	2.79
SMQCKVILLDGSHYTCDVEKRSRG	2.75
SMQCKVILLDGSIYTCDVEKRSRG	1.51
SMQCKVILLDGSKYTCDVEKRSRG	2.41
SMQCKVILLDGSLYTCDVEKRSRG	2.7
SMQCKVILLDGSMYTCDVEKRSRG	2.09
SMQCKVILLDGSNYTCDVEKRSRG	1.75
SMQCKVILLDGSPYTCDVEKRSRG	3.48
SMQCKVILLDGSQYTCDVEKRSRG	2.98
SMQCKVILLDGSSYTCDVEKRSRG	3.27
SMQCKVILLDGSTYTCDVEKRSRG	2.33
